Measured values as given in US20240201179A1 (Harvard, published 2024).

Target: T1, RBD from MERS-CoV (MERS-CoV, UniProt K9N5Q8 367-606)
T1 construct: domain: RBD
Assay: fluorescence response of the sensor (FIG. 12)

B1: VHH72 noK V104NBDxK (VHH72 noK V104K functionalized with NBDx-NHS at the V104K position) (VHH)
VHH: QVQLQESGGGLVQAGGSLRLSCAASGRTFSEYAMGWFRQAPGREREFVATISWSGGSTYYTDSVRGRFTISRDNARNTVYLQMNSLRPDDTAVYYCAAAGLGTKVSEWDYDYDYWGQGTQVTVSS
notes: also called nanoX; NanoX
B1: no binding.
